In EP0504914A2 (E.R. SQUIBB & SONS, INC., dated 1992):

Key:
[1] = target: mutant mouse trkB receptor gp145^trkB/S345 (mouse, UniProt P15209 32-821); experiment: cell-based or functional assay
[2] = target: T1, human trk proto-oncogene product gp140^trk (human, UniProt P04629 33-796); experiment: cell-based or functional assay
[3] = target: T2, mouse trkB tyrosine protein kinase gp145^trkB (mouse, UniProt P15209 32-821); experiment: cell-based or functional assay
[4] = target: T1, human trk proto-oncogene product …; experiment: competition with [125I]-NGF on E25-48 cells
[5] = target: T3, porcine trkC product gp145^trkC (porcine); experiment: Scatchard analysis, [125I]-NT-3 on R4-31 cells at 4°C, low affinity sites
T3 construct: Expressed from pFL20 in NIH3T3 cells (R4-31); also called trkC receptor

[6] = target: T1, human trk proto-oncogene product …; experiment: cell-based or functional assay; remark: listed apart in the source
[7] = target: T2, mouse trkB tyrosine protein kinase …; experiment: cell-based or functional assay; remark: listed apart in the source
[8] = target: T3, porcine trkC product gp145^trkC; experiment: Scatchard analysis, [125I]-NT-3 on R4-31 cells at 4°C, high affinity sites
[9] = target: T4, rat low affinity NGF receptor gp80^LNGFR (rat, UniProt P07174 30-425); experiment: Scatchard analysis, [125I]-βNGF on PC12 cells at 4°C, low affinity receptors
T4 construct: whole, on cells
T4 sequence (looked up): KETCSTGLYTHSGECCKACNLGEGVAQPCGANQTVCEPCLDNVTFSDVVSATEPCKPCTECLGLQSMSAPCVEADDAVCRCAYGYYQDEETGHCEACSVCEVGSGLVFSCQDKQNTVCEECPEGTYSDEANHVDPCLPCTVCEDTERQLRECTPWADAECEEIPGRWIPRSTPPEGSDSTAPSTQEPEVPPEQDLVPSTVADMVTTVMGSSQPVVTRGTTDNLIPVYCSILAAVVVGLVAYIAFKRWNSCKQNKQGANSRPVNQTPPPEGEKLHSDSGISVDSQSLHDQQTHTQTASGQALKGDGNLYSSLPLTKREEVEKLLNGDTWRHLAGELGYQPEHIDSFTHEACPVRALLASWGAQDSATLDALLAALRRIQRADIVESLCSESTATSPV

[10] = target: T1, human trk proto-oncogene product …; experiment: Scatchard analysis, [125I]-βNGF on E25-427 cells at 4°C, low affinity receptors
[11] = target: T1, human trk proto-oncogene product …; experiment: Scatchard analysis, [125I]-βNGF on E25-48 cells at 4°C, high affinity receptors
[12] = target: T1, human trk proto-oncogene product …; experiment: Scatchard analysis, [125I]-βNGF on E25-48 cells at 4°C, low affinity receptors
[13] = target: T2, mouse trkB tyrosine protein kinase …; experiment: [125I]-βNGF binding to cells at 4°C
[14] = target: T5, endogenous trk proto-oncogene product of rat PC12 cells (rat, UniProt P35739 33-799); experiment: Scatchard analysis, [125I]-βNGF on PC12 cells at 4°C, high affinity receptors
T5 construct: whole, on cells; also called PC12 endogenous trk proto-oncogene product; gp140^trk of PC12 cells
T5 sequence (P35739 33-799): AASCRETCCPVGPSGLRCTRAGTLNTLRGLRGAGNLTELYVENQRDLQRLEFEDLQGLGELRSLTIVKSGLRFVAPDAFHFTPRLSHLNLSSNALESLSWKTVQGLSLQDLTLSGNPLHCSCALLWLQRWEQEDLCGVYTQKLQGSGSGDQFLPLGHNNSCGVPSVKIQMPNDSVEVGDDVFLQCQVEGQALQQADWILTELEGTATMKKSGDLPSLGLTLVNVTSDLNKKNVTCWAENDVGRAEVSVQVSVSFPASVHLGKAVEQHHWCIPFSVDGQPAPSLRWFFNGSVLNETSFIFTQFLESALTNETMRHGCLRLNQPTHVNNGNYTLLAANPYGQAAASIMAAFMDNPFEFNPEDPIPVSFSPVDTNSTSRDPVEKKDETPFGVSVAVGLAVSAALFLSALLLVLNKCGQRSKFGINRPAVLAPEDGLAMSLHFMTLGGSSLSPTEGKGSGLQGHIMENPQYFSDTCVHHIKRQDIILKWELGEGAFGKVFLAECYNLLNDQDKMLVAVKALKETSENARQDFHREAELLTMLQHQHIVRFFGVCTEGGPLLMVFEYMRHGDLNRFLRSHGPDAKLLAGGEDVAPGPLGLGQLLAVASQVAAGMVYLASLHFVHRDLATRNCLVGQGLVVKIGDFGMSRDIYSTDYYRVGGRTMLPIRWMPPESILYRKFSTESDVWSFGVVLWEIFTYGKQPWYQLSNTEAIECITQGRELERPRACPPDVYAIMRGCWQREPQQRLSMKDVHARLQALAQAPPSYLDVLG

[15] = target: T1, human trk proto-oncogene product …; experiment: Scatchard analysis, [125I]-βNGF on Sf9 cells infected with pAcS2, high affinity receptors
[16] = target: T1, human trk proto-oncogene product …; experiment: Scatchard analysis, [125I]-βNGF on Sf9 cells infected with pAcS2, low affinity receptors
[17] = target: T1, human trk proto-oncogene product …; experiment: Scatchard analysis, [125I]-βNGF on E25-427 cells at 4°C, high affinity receptors
[18] = target: T1, human trk proto-oncogene product …; experiment: cell-based or functional assay; remark: listed apart in the source

T2 sequence (P15209 32-821): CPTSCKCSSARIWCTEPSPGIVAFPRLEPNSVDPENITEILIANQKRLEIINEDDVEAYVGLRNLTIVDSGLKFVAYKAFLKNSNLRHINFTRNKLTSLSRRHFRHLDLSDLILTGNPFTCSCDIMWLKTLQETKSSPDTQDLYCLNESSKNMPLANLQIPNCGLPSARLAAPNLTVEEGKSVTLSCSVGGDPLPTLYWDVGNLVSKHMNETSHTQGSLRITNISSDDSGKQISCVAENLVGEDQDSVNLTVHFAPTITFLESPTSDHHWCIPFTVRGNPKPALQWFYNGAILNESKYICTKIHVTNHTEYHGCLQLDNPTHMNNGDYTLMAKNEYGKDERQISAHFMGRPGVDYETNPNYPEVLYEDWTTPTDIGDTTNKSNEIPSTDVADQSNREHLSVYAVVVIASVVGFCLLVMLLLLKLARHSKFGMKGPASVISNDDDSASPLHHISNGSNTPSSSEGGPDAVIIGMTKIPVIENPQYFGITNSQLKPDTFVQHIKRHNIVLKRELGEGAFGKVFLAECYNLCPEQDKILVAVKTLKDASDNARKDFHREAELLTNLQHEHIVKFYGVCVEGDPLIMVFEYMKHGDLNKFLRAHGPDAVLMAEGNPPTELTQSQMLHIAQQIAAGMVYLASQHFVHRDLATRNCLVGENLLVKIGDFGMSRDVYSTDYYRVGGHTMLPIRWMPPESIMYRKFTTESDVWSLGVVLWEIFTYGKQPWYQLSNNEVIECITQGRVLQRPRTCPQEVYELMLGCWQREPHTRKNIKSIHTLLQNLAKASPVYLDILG
T1 sequence (P04629 33-796): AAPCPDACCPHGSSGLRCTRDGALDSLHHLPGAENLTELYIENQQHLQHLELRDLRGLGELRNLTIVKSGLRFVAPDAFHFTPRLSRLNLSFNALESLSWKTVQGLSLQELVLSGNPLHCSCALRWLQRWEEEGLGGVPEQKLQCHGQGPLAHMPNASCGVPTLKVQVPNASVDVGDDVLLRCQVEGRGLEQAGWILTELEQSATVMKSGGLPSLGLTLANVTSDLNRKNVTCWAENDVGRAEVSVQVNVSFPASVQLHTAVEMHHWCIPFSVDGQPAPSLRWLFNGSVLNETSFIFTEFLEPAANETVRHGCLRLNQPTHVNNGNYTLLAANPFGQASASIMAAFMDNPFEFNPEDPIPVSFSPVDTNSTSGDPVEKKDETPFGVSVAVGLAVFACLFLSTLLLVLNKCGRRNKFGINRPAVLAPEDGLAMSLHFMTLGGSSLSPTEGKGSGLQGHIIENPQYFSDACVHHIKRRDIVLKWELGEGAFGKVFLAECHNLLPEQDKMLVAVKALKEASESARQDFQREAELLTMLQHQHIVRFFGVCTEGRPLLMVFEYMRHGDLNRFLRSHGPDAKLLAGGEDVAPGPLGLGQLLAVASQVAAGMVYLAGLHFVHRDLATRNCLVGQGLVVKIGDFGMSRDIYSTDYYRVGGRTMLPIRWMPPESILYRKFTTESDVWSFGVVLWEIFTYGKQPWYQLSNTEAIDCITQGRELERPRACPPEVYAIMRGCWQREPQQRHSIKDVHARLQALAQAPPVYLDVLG
Sequence of mutant mouse trkB receptor gp145^trkB/S345 (P15209 other isoform, or with tags, fused parts or gaps mutant): as the sequence (P15209 32-821) above, with C314S counted along it

B1: human brain-derived neurotrophic factor (BDNF) (ligand, UniProt P23560 129-247, looked up)
chain: HSDPARRGELSVCDSISEWVTAADKKTAVDMSGGTVTVLEKVPVSKGQLKQYFYETKCNPMGYTKEGCRGIDKRHWNSQCRTTQSYVRALTMDSKKRIGWRFIRIDTSCVCTLTIKRGR
modifications: 125I (Bolton-Hunter) where used as tracer in Example 5
notes: mature; also called [125I]-BDNF
Q: With B1 as the binder, how does the “efficiency in mediating the response to BDNF, against wild type gp145^trkB” value [1] read?
A: ~10 fold less efficient than wild type

Q: And the “transforming activity of neurotrophic factor DNA in the presence of trk DNA” value (“transforming activity … of trk DNA” below) [2]?
A: < 1 ffu per µg of DNA

Q: And the “transforming activity of neurotrophic factor DNA in the presence of trkB DNA” value (“transforming activity … of trkB DNA” below) [3]?
A: 40000 ffu per µg of DNA

Q: Does B1 bind [4]?
A: no binding (tested: 500 ng/ml)

B2: human neurotrophin-3 (NT-3) (ligand, UniProt P20783 139-257, looked up)
chain: YAEHKSHRGEYSVCDSESLWVTDKSSAIDIRGHQVTVLGEIKTGNSPVKQYFYETRCKEARPVKNGCRGIDDKHWNSQCKTSQTYVRALTSENNKLVGWRWIRIDTSCVCALSRKIGRT
modifications: 125I (Bolton-Hunter) where used as tracer
notes: mature; also called [125I]-labeled NT-3
Q: With B2 as the binder, how does the Kd [5] read?
A: 4 nM

Q: What about the “efficiency in transformation assays with pDM69, against NGF” value [6] of the same binder?
A: 200 fold less efficient than NGF

Q: And the “transformation efficiency with pFRK44, against BDNF” value [7]?
A: 500 fold lower

Q: What about the “transforming activity … of trk DNA” value [2] of the same binder?
A: 300 ffu per µg of DNA

Q: What about the “transforming activity … of trkB DNA” value [3] of the same binder?
A: 100 ffu per µg of DNA

Q: And the Kd [8]?
A: 0.026 nM

B3: Xenopus laevis neurotrophin-4 (XNT-4) (ligand, UniProt P24727 114-236, looked up)
chain: ASGSDSVSLSRRGELSVCDSVNVWVTDKRTAVDDRGKIVTVMSEIQTLTGPLKQYFFETKCNPSGSTTRGCRGVDKKQWISECKAKQSYVRALTIDANKLVGWRWIRIDTACVCTLLSRTGRT
Q: Which “transforming activity with gp145^trkB, against BDNF” value [7] does the source give for B3 here?
A: 5 fold lower than BDNF

B4: murine 2.5S NGF (βNGF) (ligand, UniProt P01139 122-241, looked up)
chain: SSTHPVFHMGEFSVCDSVSVWVGDKTTATDIKGKEVTVLAEVNINNSVFRQYFFETKCRASNPVESGCRGIDSKHWNSYCTTTHTFVKALTTDEKQAAWRFIRIDTACVCVLSRKATRRG
modifications: 125I label where used as tracer
notes: mature; The background says that βNGF exists as a 26,000 d homodimer; also called [125I]-labeled βNGF; [125I]-NGF
Q: How did the Kd [9] turn out when B4 was run?
A: 33.2 nM

Q: What about the Kd [10] of the same binder?
A: 7 nM

Q: And the Kd [11]?
A: 0.09 nM

Q: What about the Kd [12] of the same binder?
A: 2.4 nM

Q: And the “transforming activity … of trk DNA” value [2]?
A: 20000 ffu per µg of DNA

Q: And the “transforming activity … of trkB DNA” value [3]?
A: < 1 ffu per µg of DNA

Q: Does B4 bind [13]?
A: no binding (tested: 1 nM)

Q: What about the Kd [14] of the same binder?
A: 0.3 nM

Q: And the Kd [15]?
A: 0.42 nM

Q: What about the Kd [16] of the same binder?
A: 13.7 nM

Q: And the Kd [17]?
A: 0.12 nM

Q: And the “NGF stimulation of agar colonies, 10^3 E25-48 cells” value [18]?
A: 9 fold

Q: What about the “NGF stimulation of agar colonies, 10^4 E25-48 cells” value [18] of the same binder?
A: 7 fold
